Measured values taken from PMC3139566 (Biochemistry, 2011).
Each block holds one binder with its values, some of them ahead of it. Where no end group is shown, it is not given here. [ ]: non-standard residue; d: D form. pY = N[C@@H](Cc1ccc(OP(=O)(O)O)cc1)C(=O)O

Key:
Fe65 WW-PID1 236-512 = molecular target: T1, Fe65 WW-PID1 236-512 (human, UniProt O00213-2 236-512); assay: fluorescence polarisation
T1 sequence (looked up): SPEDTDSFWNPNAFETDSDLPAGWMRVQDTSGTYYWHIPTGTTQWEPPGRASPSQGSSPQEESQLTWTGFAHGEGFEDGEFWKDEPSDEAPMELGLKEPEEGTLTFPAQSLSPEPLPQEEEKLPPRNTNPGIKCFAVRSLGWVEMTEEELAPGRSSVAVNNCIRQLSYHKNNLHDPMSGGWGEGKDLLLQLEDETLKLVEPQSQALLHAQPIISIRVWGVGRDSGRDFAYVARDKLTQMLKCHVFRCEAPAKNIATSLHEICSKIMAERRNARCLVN

[1] = molecular target: T2, Fe65 WW-PID1-PID2 236-662 (human, UniProt O00213-2 236-662); assay: fluorescence polarisation
T2 sequence (looked up): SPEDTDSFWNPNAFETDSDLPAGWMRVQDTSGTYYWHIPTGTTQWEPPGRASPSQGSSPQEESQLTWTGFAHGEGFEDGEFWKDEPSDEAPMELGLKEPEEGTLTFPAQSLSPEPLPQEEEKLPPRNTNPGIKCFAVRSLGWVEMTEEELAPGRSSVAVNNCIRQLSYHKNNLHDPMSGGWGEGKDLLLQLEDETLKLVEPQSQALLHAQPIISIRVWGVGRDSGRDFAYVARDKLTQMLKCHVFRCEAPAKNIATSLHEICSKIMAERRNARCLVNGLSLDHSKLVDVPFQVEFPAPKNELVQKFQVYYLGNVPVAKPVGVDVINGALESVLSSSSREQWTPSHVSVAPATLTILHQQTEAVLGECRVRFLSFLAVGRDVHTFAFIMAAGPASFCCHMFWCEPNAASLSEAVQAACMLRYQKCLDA

[2] = molecular target: T3, Fe65 N-term-WW-PID1-PID2 1-662 (human, UniProt O00213-2 1-662); assay: SPR
T3 sequence (looked up): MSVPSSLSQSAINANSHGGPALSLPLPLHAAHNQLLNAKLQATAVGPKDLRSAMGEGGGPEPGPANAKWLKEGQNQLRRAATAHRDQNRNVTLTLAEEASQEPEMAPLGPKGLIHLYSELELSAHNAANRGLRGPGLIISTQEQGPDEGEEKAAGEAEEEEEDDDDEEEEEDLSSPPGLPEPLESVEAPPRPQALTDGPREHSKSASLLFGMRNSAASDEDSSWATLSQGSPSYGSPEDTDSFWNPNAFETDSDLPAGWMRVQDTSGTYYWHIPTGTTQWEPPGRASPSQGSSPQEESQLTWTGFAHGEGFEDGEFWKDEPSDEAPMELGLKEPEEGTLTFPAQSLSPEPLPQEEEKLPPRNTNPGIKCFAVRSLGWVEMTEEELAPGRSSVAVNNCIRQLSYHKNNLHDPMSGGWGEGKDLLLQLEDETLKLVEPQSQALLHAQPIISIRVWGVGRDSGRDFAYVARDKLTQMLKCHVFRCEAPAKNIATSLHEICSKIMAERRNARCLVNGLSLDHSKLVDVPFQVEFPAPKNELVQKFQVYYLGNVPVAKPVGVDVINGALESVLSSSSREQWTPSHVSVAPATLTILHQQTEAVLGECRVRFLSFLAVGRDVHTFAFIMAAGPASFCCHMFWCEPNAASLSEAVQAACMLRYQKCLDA

Kd (Fe65 WW-PID1 236-512): 66.7 µM | Kd [1]: 48.3 µM
B1: LRP4488 phosphorylated at Y4507 (pYLRP4488) labeled with Oregon Green 488 (domain or fragment, human)
chain: C(Oregon Green 488 maleimide)LDADFALDPDKPTNFTNPV[pY]ATLYMGGHGSRHSLASTDEKRELLGRGPEDEIGDPLA

Kd [2]: 2.5 ± 0.35 µM
B2: APP Intracellular Domain (AICD, residues 649-695), biotinylated at the N-terminal cysteine (domain or fragment)
chain: GSKLCKKKQYTSIHHGVVEVDAAVTPEERHLSKMQQNGYENPTYKFFEQMQN
modifications: biotin (biotin-maleimide) on the N-terminal cysteine
